Biological target: SARS-CoV-1 RBD-Fc (RBD N321-P513 fused to CH2 and CH3 of mouse IgG1) (SARS-CoV-1)
Test: SPR

soluble human ACE2, truncated ectodomain (S19-D615), C-terminal 6xHIS-tag, sequence (Q9BYF1 19-615): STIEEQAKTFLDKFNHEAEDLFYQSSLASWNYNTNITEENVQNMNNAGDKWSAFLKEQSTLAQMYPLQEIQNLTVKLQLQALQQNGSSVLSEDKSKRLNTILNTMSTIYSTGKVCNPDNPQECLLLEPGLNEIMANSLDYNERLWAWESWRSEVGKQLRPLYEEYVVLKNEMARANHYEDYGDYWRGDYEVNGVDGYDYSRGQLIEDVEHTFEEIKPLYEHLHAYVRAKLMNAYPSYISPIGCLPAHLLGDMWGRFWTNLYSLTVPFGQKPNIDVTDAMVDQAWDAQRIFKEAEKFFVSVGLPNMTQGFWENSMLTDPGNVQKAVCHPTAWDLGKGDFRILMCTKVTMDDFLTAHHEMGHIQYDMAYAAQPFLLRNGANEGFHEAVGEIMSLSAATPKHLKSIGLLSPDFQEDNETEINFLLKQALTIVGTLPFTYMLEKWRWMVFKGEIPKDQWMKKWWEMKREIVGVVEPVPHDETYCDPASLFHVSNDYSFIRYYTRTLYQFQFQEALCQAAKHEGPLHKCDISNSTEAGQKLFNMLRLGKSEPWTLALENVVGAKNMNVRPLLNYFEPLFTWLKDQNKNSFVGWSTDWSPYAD

soluble human ACE2, truncated ectodomain (S19-D615), C-terminal 6xHIS-tag (from UniProt Q9BYF1 19-615) (receptor)
Kd: 385 nM

From publication PMC9529347
